Source: PMC4741457, “Structural basis for the indispensable role of a unique zinc finger motif in LNX2 ubiquitination” (Oncotarget, 2015)

Target: the molecule itself
Assay: SEC; calibrated gel-filtration column (Superdex 75 or Superdex 200), each protein run alone

Protein | stoichiometry N | binding result
full-length LNX2 (enzyme, human, UniProt Q8N448 1-690, looked up, Ligand of Numb protein-X 2 (LNX2), human, full length (last residue Val690); The methods say in general that MBP-tagged proteins were cleaved with TEV protease before size exclusion; MBP-tagged FL-LNX2 was used uncleaved in some ubiquitination assays; also called FL-LNX2; Ligand of Numb Protein-X 2; source: E. coli BL21 (DE3), purified (amylose sepharose, size exclusion)) MGTTSDEMVSVEQTSSSSLNPLCFECGQQHWTRENHLYNYQNEVDDDLVCHICLQPLLQPLDTPCGHTFCYKCLRNFLQEKDFCPLDRKRLHFKLCKKSSILVHKLLDKLLVLCPFSSVCKDVMQRCDLEAHLKNRCPGASHRRVALERRKTSRTQAEIENENGPTLLDPAGTLSPEADCLGTGAVPVERHLTSASLSTWSEEPGLDNPAFEESAGADTTQQPLSLPEGEITTIEIHRSNPYIQLGISIVGGNETPLINIVIQEVYRDGVIARDGRLLAGDQILQVNNYNISNVSHNYARAVLSQPCNTLHLTVLRERRFGNRAHNHSDSNSPREEIFQVALHKRDSGEQLGIKLVRRTDEPGVFILDLLEGGLAAQDGRLSSNDRVLAINGHDLKYGTPELAAQIIQASGERVNLTIARPGKPQPGNTIREAGNHSSSSQHHTPPPYYSRPSSHKDLTQCVTCQEKHITVKKEPHESLGMTVAGGRGSKSGELPIFVTSVPPHGCLARDGRIKRGDVLLNINGIDLTNLSHSEAVAMLKASAASPAVALKALEVQIVEEATQNAEEQPSTFSENEYDASWSPSWVMWLGLPSTLHSCHDIVLRRSYLGSWGFSIVGGYEENHTNQPFFIKTIVLGTPAYYDGRLKCGDMIVAVNGLSTVGMSHSALVPMLKEQRNKVTLTVICWPGSLV | 2 | 
full-length LNX2 triple mutant (Lys109Ala, Ser688Asp, Val690Glu) (enzyme, human, UniProt Q8N448 1-690, looked up, LNX2, human, full length, with Lys109Ala, Ser688Asp and Val690Glu; also called triple mutant of human FL-LNX2; source: E. coli BL21 (DE3), purified) MGTTSDEMVSVEQTSSSSLNPLCFECGQQHWTRENHLYNYQNEVDDDLVCHICLQPLLQPLDTPCGHTFCYKCLRNFLQEKDFCPLDRKRLHFKLCKKSSILVHKLLDALLVLCPFSSVCKDVMQRCDLEAHLKNRCPGASHRRVALERRKTSRTQAEIENENGPTLLDPAGTLSPEADCLGTGAVPVERHLTSASLSTWSEEPGLDNPAFEESAGADTTQQPLSLPEGEITTIEIHRSNPYIQLGISIVGGNETPLINIVIQEVYRDGVIARDGRLLAGDQILQVNNYNISNVSHNYARAVLSQPCNTLHLTVLRERRFGNRAHNHSDSNSPREEIFQVALHKRDSGEQLGIKLVRRTDEPGVFILDLLEGGLAAQDGRLSSNDRVLAINGHDLKYGTPELAAQIIQASGERVNLTIARPGKPQPGNTIREAGNHSSSSQHHTPPPYYSRPSSHKDLTQCVTCQEKHITVKKEPHESLGMTVAGGRGSKSGELPIFVTSVPPHGCLARDGRIKRGDVLLNINGIDLTNLSHSEAVAMLKASAASPAVALKALEVQIVEEATQNAEEQPSTFSENEYDASWSPSWVMWLGLPSTLHSCHDIVLRRSYLGSWGFSIVGGYEENHTNQPFFIKTIVLGTPAYYDGRLKCGDMIVAVNGLSTVGMSHSALVPMLKEQRNKVTLTVICWPGDLE |  | binds
Zn-RING-Zn domain of LNX2 (aa 20-147) (domain or fragment, human, UniProt Q8N448 20-147, looked up, Genes were cloned into pGEX6P-1 or pMAL; The last six residues are not in the crystallographic model; Four zinc ions per monomer; source: E. coli BL21 (DE3), purified (glutathione or amylose sepharose, tag cleaved, Superdex size exclusion)) NPLCFECGQQHWTRENHLYNYQNEVDDDLVCHICLQPLLQPLDTPCGHTFCYKCLRNFLQEKDFCPLDRKRLHFKLCKKSSILVHKLLDKLLVLCPFSSVCKDVMQRCDLEAHLKNRCPGASHRRVAL | 2 | 
Zn-RING-Zn domain of LNX2 (aa 20-147) Asp45Ala (domain or fragment, human, UniProt Q8N448 20-147, looked up, PDB 5DIN is the wild-type parent of the same limits; also called Asp45Ala mutant; source: E. coli BL21 (DE3), purified) NPLCFECGQQHWTRENHLYNYQNEVADDLVCHICLQPLLQPLDTPCGHTFCYKCLRNFLQEKDFCPLDRKRLHFKLCKKSSILVHKLLDKLLVLCPFSSVCKDVMQRCDLEAHLKNRCPGASHRRVAL | 2 | 
